B1: VHH4 (specific for human Class II MHC) (VHH)
VHH: QVQLQESGGGLVQAGGSLRLSCAASGSTLSSYGMGWYRQAPGKQREVVATISATGSISYADSVKGRFTISRDSAKNTMYLQLNSLTPEDTAVYYCNTIYRSTLYWGQGTQVTVSS
B2: VHH7 (anti-mouse Class II MHC single domain antibody) (VHH)
VHH: QVQLQESGGGLVQAGDSLRLSCAASGRTFSRGVMGWFRRAPGKEREFVAIFSGSSWSGRSTYYSDSVKGRFTISRDNAKNTVYLQMNGLKPEDTAVYYCAAGYPEAYSAYGRESTYDYWGQGTQVTVSS

How the values were obtained:
[1] = target: T1, mouse Class II MHC complex (Mus musculus C57BL/6 (H-2b; I-A b), UniProt P14434;P14483); assay: flow cytometry on cells
T1 sequence (P14434 24-256, chain 1 of 2): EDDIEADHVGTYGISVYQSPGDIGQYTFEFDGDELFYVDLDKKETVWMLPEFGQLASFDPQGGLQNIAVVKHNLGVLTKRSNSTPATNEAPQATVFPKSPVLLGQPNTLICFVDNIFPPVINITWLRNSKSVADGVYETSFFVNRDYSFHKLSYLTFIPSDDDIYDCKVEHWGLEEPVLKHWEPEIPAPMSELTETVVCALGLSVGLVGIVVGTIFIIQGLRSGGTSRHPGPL
T1 sequence (P14483 28-265, chain 2 of 2): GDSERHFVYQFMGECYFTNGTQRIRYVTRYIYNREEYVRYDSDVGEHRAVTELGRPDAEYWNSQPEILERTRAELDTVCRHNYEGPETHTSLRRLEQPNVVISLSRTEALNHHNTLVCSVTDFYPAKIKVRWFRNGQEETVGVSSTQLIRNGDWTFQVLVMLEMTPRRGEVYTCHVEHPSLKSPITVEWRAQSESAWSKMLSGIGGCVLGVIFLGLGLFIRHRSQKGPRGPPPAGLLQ

[2] = target: T1, mouse Class II MHC complex; assay: flow cytometry on cells; remark: listed apart in the source

| Binder | binding result [1] | EC50 [2] |
| --- | --- | --- |
| B1 | no binding |  |
| B2 |  | 55 to 60 nM |

Source: paper PMC4778250 (ACS Central Science, 2015)
